Laboratory results: patent US20250243471A1

Tests used:
[1] = molecular target: EcAvs4 Q63A/K65A with internal TwinStrep tag between residues 114 and 115 (cryo-EM construct) (Escherichia coli NCTC11132); test: cryo-EM; interface between adjacent STAND ATPase domains in the portal-bound EcAvs4 tetramer
[2] = molecular target: PhiV-1 gp8 portal protein (coliphage PhiV-1); test: cryo-EM structure of the EcAvs4-portal complex
[3] = molecular target: PhiV-1 gp19 large terminase subunit (coliphage PhiV-1); test: cell-based or functional assay
[4] = molecular target: PhiV-1 gp8 portal protein (coliphage PhiV-1); test: cell-based or functional assay
[5] = molecular target: PhiV-1 gp19 large terminase subunit (coliphage PhiV-1); test: cryo-EM structure of the SeAvs3-terminase complex
[6] = molecular target: SeAvs3 from Salmonella enterica NCTC13175 with C-terminal 6xHis tag (purified recombinant) (Salmonella enterica NCTC13175); test: cryo-EM; interface between adjacent STAND ATPase domains in the terminase-bound SeAvs3 tetramer
[7] = molecular target: PhiV-1 gp19 terminase with StrepTag (gp19-StrepTag) (coliphage PhiV-1); test: tandem affinity purification (Ni-NTA, Strep-Tactin), Superose 6 Increase peak, SDS-PAGE band intensity

EcAvs4 Q63A/K65A with internal TwinStrep tag between residues 114 and 115 (cryo-EM construct) (receptor)
buried surface area [1]: 1230 Å^2 | buried solvent-accessible surface area [2]: 5800 Å2

EcAvs4 from Escherichia coli NCTC11132 expressed in E. coli (genetic assays) (receptor)
Abundance relative to E. coli NovaBlue control (PhiV-1 fragment screen, deep sequencing of surviving plasmids) [3]: 0.11 | Abundance relative to E. coli NovaBlue control (PhiV-1 fragment screen, deep sequencing of surviving plasmids) [4]: < 0.0001

SeAvs3 from Salmonella enterica NCTC13175 expressed in E. coli (genetic assays) (receptor)
Abundance relative to E. coli NovaBlue control (PhiV-1 fragment screen, deep sequencing of surviving plasmids) [3]: < 0.0001 | Abundance relative to E. coli NovaBlue control (PhiV-1 fragment screen, deep sequencing of surviving plasmids) [4]: 0.65

SeAvs3 from Salmonella enterica NCTC13175 with C-terminal 6xHis tag (purified recombinant) (receptor)
buried solvent-accessible surface area [5]: > 3700 Å2 | buried surface area [6]: 436 Å^2 | ratio of SeAvs3 and gp19 in the complex peak (SeAvs3:gp19 ratio) [7]: 1
